Laboratory results taken from US20170137467A1 (CHROMOTEK, published 2017).
Square brackets hold non-standard residues; d marks the D form. Ends that are not written are not given here. * marks the point of attachment. Biotin = O=C1N[C@H]2[C@H](CS[C@H]2CCCCC(=O)*)N1; ethylene glycol linker = not defined here; GABA = NCCCC(=O)O

Legend:
[1] = biological target: T1, pTag1 peptide (PDRVRAVSHWSS), biotinylated (reading uncertain); assay: biolayer interferometry, biotinylated peptide on Streptavidin biosensor; reference original BC2T (SEQ ID NO:4)
T1 construct: Immobilised on Streptavidin biosensors
T1 peptide: {Biotin-ethylene glycol linker}-PDRVRAVSHWSS
Method: Biolayer interferometry (BLI)-based affinity measurements were used to assess two improved variations of the original BC2T sequence (a: […], pTag1 SEQ ID NO:33; b: […], pTag2 SEQ ID NO:34) in comparison with the original BC2T sequence (c: BC2T SEQ ID NO:4).
The shaking rate was 1200 rpm. As a reference, each peptide was also incubated with BLItz buffer only according to the protocol above. […] The sensor was regenerated by sequential dips into 10 mM glycine pH 2.0 and BLItz buffer (repeated three times). Raw data were analysed using the software BLItz Pro (fortéBio) and a 1:1 binding model.

[2] = biological target: T2, eGFP-PCNA with C-terminal BC2 tag (eGFP-PCNABC2T) (human, UniProt P12004 1-261); assay: immunoprecipitation from HEK293T lysate, immunoblot with anti-PCNA
T2 construct: Expressed in HEK293T or HeLa cells; not shown: eGFP
T2 sequence (P12004 other isoform, or with tags, fused parts or gaps limits assumed): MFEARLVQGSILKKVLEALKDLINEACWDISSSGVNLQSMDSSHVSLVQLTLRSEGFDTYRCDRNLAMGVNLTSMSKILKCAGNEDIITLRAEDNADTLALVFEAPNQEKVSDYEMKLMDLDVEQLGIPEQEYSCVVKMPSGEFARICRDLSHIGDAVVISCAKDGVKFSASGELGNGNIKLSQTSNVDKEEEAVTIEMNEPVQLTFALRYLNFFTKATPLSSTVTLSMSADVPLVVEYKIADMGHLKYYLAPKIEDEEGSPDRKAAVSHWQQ
Method: (§1) HEK293T cells transiently expressing eGFP, eGFPBC2T or BC2TeGFP, eGFP-PCNA, eGFP-PCNABC2T, mCherry-Vimentin, mCherry-VimentinBC2T were washed and harvested in phosphate buffered saline (PBS), snap-frozen in liquid nitrogen and stored at −20° C. Cell pellets were homogenized in 200 μl lysis buffer (10 mM Tris/Cl pH 7.5, 150 mM NaCl, 0.5% NP40, 1 μg DNaseI, 2 mM MgCl₂, 2 mM PMSF, 1× protease inhibitor mix M (Serva) by repeated pipetting for 40 min on ice. After a centrifugation step (10 min at 18.000×g) the protein concentration of each lysate was determined using a Pierce BCA Protein Assay Kit (Thermo Fisher Scientific) according to manufacturer's protocol and the protein solutions were adjusted with dilution buffer (10 mM Tris/Cl pH 7.5, 150 mM NaCl, 2 mM PMSF) to a concentration of 1 mg/ml. 2% of the supernatant were added to SDS-containing sample buffer (referred to as input). […] After a centrifugation step (2 min, 2500×g) the precleared supernatant was transferred to a new cup. 2% were added to SDS-containing sample buffer (referred to as non-bound). […] Samples were analyzed by SDS-PAGE followed by immunoblotting. Immunoblots were probed with indicated antibodies.

[3] = biological target: T3, mCherry-Vimentin (untagged) (UniProt P08670 1-466); assay: immunoprecipitation from HEK293T lysate with the BC2 nanotrap, immunoblot with anti-vimentin
T3 construct: Control without the BC2 tag; not shown: mCherry fluorescent protein
T3 sequence (P08670 whole entry): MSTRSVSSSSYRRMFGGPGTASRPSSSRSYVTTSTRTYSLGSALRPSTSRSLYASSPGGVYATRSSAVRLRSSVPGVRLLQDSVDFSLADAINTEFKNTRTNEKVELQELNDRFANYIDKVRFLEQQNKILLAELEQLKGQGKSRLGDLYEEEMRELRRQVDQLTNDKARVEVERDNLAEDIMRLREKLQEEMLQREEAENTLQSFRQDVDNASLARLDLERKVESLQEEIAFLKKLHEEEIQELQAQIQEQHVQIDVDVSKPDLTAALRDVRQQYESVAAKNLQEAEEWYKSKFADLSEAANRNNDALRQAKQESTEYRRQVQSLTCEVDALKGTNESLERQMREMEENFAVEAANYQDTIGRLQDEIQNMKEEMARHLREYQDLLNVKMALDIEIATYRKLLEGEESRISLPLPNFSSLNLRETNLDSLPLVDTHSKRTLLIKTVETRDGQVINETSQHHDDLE
Method: as §1

[4] = biological target: T4, BC2T W10V peptide (BC2TW10X library) (human); assay: BC2TW10X library pulldown with immobilized Nb, LC-MS of the supernatant
T4 construct: also called W10 permutant V
T4 peptide: Ac-PDRKAAVSHVQQ-NH2
Method: (§2) To investigate the binding specificity of the BC2T and derived mutants peptide libraries for each amino acid position of the sequence […] (SEQ ID NO:4) were synthesized with acetyl and amide groups located at the N-termini or C-termini respectively (Intavis). […] Incubations were performed in 300 μl PBS/0.01% CHAPS for 1 h on a HulaMixer (Life Technologies). Subsequent to a centrifugation step 10 μl supernatant were analyzed in a LC-MS procedure. Peptides were separated using an UltiMate3000 RSLCnano System (Thermo Scientific), composed of a C18 PepMap100μ-Precolumn (300 μm×5 mm; particle size: 5 μm; pore size: 100 Å—Thermo Scientific) and a C18 analytical column (Acclaim Rapid Separation LC (RSLC) Column: 150 mm×5 mm; particle size: 2.2 μm; pore size: 100 Å—Thermo Scientific). A step gradient was applied starting at 8% and ending after 20 min at 30% eluent B (80% acetonitrile, 20% H₂O, 0.1% formic acid). Peptides were analyzed using a FULL-MS-strategy detected by a Q Exactive Plus mass spectrometer (Thermo Scientific). As maximal injection time 100 ms was chosen while setting the AGC target to 3E6. The resolution was set to 70.000. Half-maximal signal areas were referenced to control precipitation approaches using a GFP-specific nanobody immobilized on agarose beads. All experiments were done in triplicates.

[5] = biological target: T5, BC2T W10G peptide (BC2TW10X library) (human); assay: as above
T5 construct: also called W10 permutant G
T5 peptide: Ac-PDRKAAVSHGQQ-NH2
Method: as §2

[6] = biological target: T6, BC2T W10H peptide (BC2TW10X library) (human); assay: as above
T6 construct: also called W10 permutant H
T6 peptide: Ac-PDRKAAVSHHQQ-NH2
Method: as §2

[7] = biological target: T7, BC2T W10C peptide (BC2TW10X library) (human, also: Abu described as gamma-amino butyric acid); assay: as above
T7 construct: also called W10 permutant C(Abu)
T7 peptide: Ac-PDRKAAVSH[GABA]QQ-NH2
Method: as §2

EPDRKAAVSHWQQQS = biological target: T8, EPDRKAAVSHWQQQS; assay: peptide aa 15-29 on microspheres, biotinylated BC2-Nb, streptavidin-PE
T8 construct: unphosphorylated counterpart of 1.m32; also called β-catenin peptide aa 15-29 without phosphorylated Ser23; phos Ser23 -
T8 peptide: EPDRKAAVSHWQQQS
Description: (§3) As negative controls, microspheres comprising Ovalbumin and the Myc-peptide ([…]) covalently coupled to OVA-microspheres were used. […] Evaluation of the PE-signals were done in a Flexmap 3D (Luminex).

MEPDRKAAVSHWQQ = biological target: T9, MEPDRKAAVSHWQQ; assay: truncated peptides of β-catenin aa 14-27 on OVA-microspheres, biotinylated BC2-Nb, streptavidin-PE
T9 construct: full-length peptide of both truncation series; also called β-catenin aa 14-27
T9 peptide: MEPDRKAAVSHWQQ
Description: as §3

KAAVSHWQQ = biological target: T10, KAAVSHWQQ; assay: as above
T10 construct: N-terminal truncation; also called β-catenin aa 19-27
T10 peptide: KAAVSHWQQ
Description: as §3

RKAAVSHWQQ = biological target: T11, RKAAVSHWQQ; assay: as above
T11 construct: N-terminal truncation; also called β-catenin aa 18-27
T11 peptide: RKAAVSHWQQ
Description: as §3

MEPDRKAAVSH = biological target: T12, MEPDRKAAVSH; assay: as above
T12 construct: C-terminal truncation; also called β-catenin aa 14-24
T12 peptide: MEPDRKAAVSH
Description: as §3

MEPDRKAAVS = biological target: T13, MEPDRKAAVS; assay: as above
T13 construct: C-terminal truncation; also called β-catenin aa 14-23
T13 peptide: MEPDRKAAVS
Description: as §3

B1: BC2 nanobody (VHH)
VHH: QVQLVESGGGLVQPGGSLTLSCTASGFTLDHYDIGWFRQAPGKEREGVSCINNSDDDTYYADSVKGRFTIFMDNAKDTVYLQMNSLKPEDTAIYYCAEARGCKRGRYEYDFWGQGTQVTVSS
notes: Alpaca VHH, 122 aa; also called BC2-Nb; BC2 nanotrap (BC2-Nb immobilized on agarose/Sepharose beads); not shown: C-terminal 6xHis-tag added by the pHEN6 vector
- fold slower koff than for original BC2T [1]: 7 fold
- binding result [2]: binds
- binding result [3]: no binding
- binding result [4]: no binding
- binding result [5]: no binding
- binding result [6]: no binding
- binding result [7]: no binding
- binding result (EPDRKAAVSHWQQQS): binds
- binding result (MEPDRKAAVSHWQQ): binds
- binding result (KAAVSHWQQ): no binding (tested: 1 µg/ml BC2-Nb)
- binding result (RKAAVSHWQQ): binds
- binding result (MEPDRKAAVSH): no binding (tested: 1 µg/ml BC2-Nb)
- binding result (MEPDRKAAVS): no binding (tested: 1 µg/ml BC2-Nb)
